Earlier results in patent publication US20200069786A1, “COMPOSITION AND PROCESS FOR PREPARING VACCINE” (TREOS BIO ZRT., priority 2018, published 2020).
Like-named read-outs stand apart in the source and are kept apart here.

Tested on: TSA
[1] = TSA expression rate in BLADDER cancer
[2] = TSA expression rate in Esophageal
[3] = TSA expression rate in GASTRIC cancer
[4] = TSA expression rate in HEAD and NECK
[5] = TSA expression rate in LUNG cancer
[6] = TSA expression rate in MELANOMA
[7] = TSA expression rate in PROSTATE cancer

Molecule | TSA Expression Rate (ER) (BRAIN) [%] | TSA Expression Rate (ER) (BREAST) [%] | TSA Expression Rate (ER) (THYROID) [%] | Expression Rate (ER) % [1] [%] | Expression Rate (ER) % [2] [%] | Expression Rate (ER) % [3] [%] | Expression Rate (ER) % [4] [%] | Expression Rate (ER) % (TSA expression rate in Kidney) [%] | Expression Rate (ER) % [5] [%] | Expression Rate (ER) % [6] [%] | TSA Expression Rate (ER) (HCC) [%] | TSA Expression Rate (ER) (LUNG) [%] | Expression Rate (ER) % (TSA expression rate in CRC) [%] | Expression Rate (ER) % [7] [%] | TSA Expression Rate (ER) (OVARIAN) [%] | Expression Rate (ER) % (TSA expression rate in LEUKEMIAS) [%]
SAGE1 (protein, UniProt Q9NXZ1 1-904, looked up) Sarcoma antigen 1: MQASPLQTSQPTPPEELHAAAYVFTNDGQQMRSDEVNLVATGHQSKKKHSRKSKRHSSSKRRKSMSSWLDKQEDAAVTHSICEERINNGQPVADNVLSTAPPWPDATIAHNIREERMENGQSRTDKVLSTAPPQLVHMAAAGIPSMSTRDLHSTVTHNIREERMENGQPQPDNVLSTGPTGLINMAATPIPAMSARDLYATVTHNVCEQKMENVQPAPDNVLLTLRPRRINMTDTGISPMSTRDPYATITYNVPEEKMEKGQPQPDNILSTASTGLINVAGAGTPAISTNGLYSTVPHNVCEEKMENDQPQPNNVLSTVQPVIIYLTATGIPGMNTRDQYATITHNVCEERVVNNQPLPSNALSTVLPGLAYLATADMPAMSTRDQHATIIHNLREEKKDNSQPTPDNVLSAVTPELINLAGAGIPPMSTRDQYATVNHHVHEARMENGQRKQDNVLSNVLSGLINMAGASIPAMSSRDLYATITHSVREEKMESGKPQTDKVISNDAPQLGHMAAGGIPSMSTKDLYATVTQNVHEERMENNQPQPSYDLSTVLPGLTYLTVAGIPAMSTRDQYATVTHNVHEEKIKNGQAASDNVFSTVPPAFINMAATGVSSMSTRDQYAAVTHNIREEKINNSQPAPGNILSTAPPWLRHMAAAGISSTITRDLYVTATHSVHEEKMTNGQQAPDNSLSTVPPGCINLSGAGISCRSTRDLYATVIHDIQEEEMENDQTPPDGFLSNSDSPELINMTGHCMPPNALDSFSHDFTSLSKDELLYKPDSNEFAVGTKNYSVSAGDPPVTVMSLVETVPNTPQISPAMAKKINDDIKYQLMKEVRRFGQNYERIFILLEEVQGSMKVKRQFVEFTIKEAARFKKVVLIQQLEKALKEIDSHCHLRKVKHMRKR | 0 | 2 | 0 | 12 | 22 | 8 | 17 | 5 | 15 | 5 | – | – | – | – | – | –
TPTE (protein, UniProt P56180 1-551, looked up) Putative tyrosine-protein …: MNESPDPTDLAGVIIELGPNDSPQTSEFKGATEEAPAKESPHTSEFKGAARVSPISESVLARLSKFEVEDAENVASYDSKIKKIVHSIVSSFAFGLFGVFLVLLDVTLILADLIFTDSKLYIPLEYRSISLAIALFFLMDVLLRVFVERRQQYFSDLFNILDTAIIVILLLVDVVYIFFDIKLLRNIPRWTHLLRLLRLIILLRIFHLFHQKRQLEKLIRRRVSENKRRYTRDGFDLDLTYVTERIIAMSFPSSGRQSFYRNPIKEVVRFLDKKHRNHYRVYNLCSERAYDPKHFHNRVVRIMIDDHNVPTLHQMVVFTKEVNEWMAQDLENIVAIHCKGGTDRTGTMVCAFLIASEICSTAKESLYYFGERRTDKTHSEKFQGVKTPSQKRYVAYFAQVKHLYNWNLPPRRILFIKHFIIYSIPRYVRDLKIQIEMEKKVVFSTISLGKCSVLDNITTDKILIDVFDGLPLYDDVKVQFFYSNLPTYYDNCSFYFWLHTSFIENNRLYLPKNELDNLHKQKARRIYPSDFAVEILFGEKMTSSDVVAGSD | 0 | – | – | – | – | 0 | 0 | – | – | – | 39 | 36 | 4 | – | – | –
MAGE-B6 (protein, UniProt Q8N7X4 1-407, looked up) Melanoma-associated antigen B6: MPRGHKSKLRTCEKRQETNGQPQGLTGPQATAEKQEESHSSSSSSRACLGDCRRSSDASIPQESQGVSPTGSPDAVVSYSKSDVAANGQDEKSPSTSRDASVPQESQGASPTGSPDAGVSGSKYDVAANGQDEKSPSTSHDVSVPQESQGASPTGSPDAGVSGSKYDVAAEGEDEESVSASQKAIIFKRLSKDAVKKKACTLAQFLQKKFEKKESILKADMLKCVRREYKPYFPQILNRTSQHLVVAFGVELKEMDSSGESYTLVSKLGLPSEGILSGDNALPKSGLLMSLLVVIFMNGNCATEEEVWEFLGLLGIYDGILHSIYGDARKIITEDLVQDKYVVYRQVCNSDPPCYEFLWGPRAYAETTKMRVLRVLADSSNTSPGLYPHLYEDALIDEVERALRLRA | 6 | – | – | – | – | – | – | – | – | – | – | – | – | – | – | –
ATAD2 (protein, UniProt Q6PL18 1-1390, looked up) ATPase family AAA …: MVVLRSSLELHNHSAASATGSLDLSSDFLSLEHIGRRRLRSAGAAQKKPAATTAKAGDGSSVKEVETYHRTRALRSLRKDAQNSSDSSFEKNVEITEQLANGRHFTRQLARQQADKKKEEHREDKVIPVTRSLRARNIVQSTEHLHEDNGDVEVRRSCRIRSRYSGVNQSMLFDKLITNTAEAVLQKMDDMKKMRRQRMRELEDLGVFNETEESNLNMYTRGKQKDIQRTDEETTDNQEGSVESSEEGEDQEHEDDGEDEDDEDDDDDDDDDDDDDDEDDEDEEDGEEENQKRYYLRQRKATVYYQAPLEKPRHQRKPNIFYSGPASPARPRYRLSSAGPRSPYCKRMNRRRHAIHSSDSTSSSSSEDEQHFERRRKRSRNRAINRCLPLNFRKDELKGIYKDRMKIGASLADVDPMQLDSSVRFDSVGGLSNHIAALKEMVVFPLLYPEVFEKFKIQPPRGCLFYGPPGTGKTLVARALANECSQGDKRVAFFMRKGADCLSKWVGESERQLRLLFDQAYQMRPSIIFFDEIDGLAPVRSSRQDQIHSSIVSTLLALMDGLDSRGEIVVIGATNRLDSIDPALRRPGRFDREFLFSLPDKEARKEILKIHTRDWNPKPLDTFLEELAENCVGYCGADIKSICAEAALCALRRRYPQIYTTSEKLQLDLSSINISAKDFEVAMQKMIPASQRAVTSPGQALSTVVKPLLQNTVDKILEALQRVFPHAEFRTNKTLDSDISCPLLESDLAYSDDDVPSVYENGLSQKSSHKAKDNFNFLHLNRNACYQPMSFRPRILIVGEPGFGQGSHLAPAVIHALEKFTVYTLDIPVLFGVSTTSPEETCAQVIREAKRTAPSIVYVPHIHVWWEIVGPTLKATFTTLLQNIPSFAPVLLLATSDKPHSALPEEVQELFIRDYGEIFNVQLPDKEERTKFFEDLILKQAAKPPISKKKAVLQALEVLPVAPPPEPRSLTAEEVKRLEEQEEDTFRELRIFLRNVTHRLAIDKRFRVFTKPVDPDEVPDYVTVIKQPMDLSSVISKIDLHKYLTVKDYLRDIDLICSNALEYNPDRDPGDRLIRHRACALRDTAYAIIKEELDEDFEQLCEEIQESRKKRGCSSSKYAPSYYHVMPKQNSTLVGDKRSDPEQNEKLKTPSTPVACSTPAQLKRKIRKKSNWYLGTIKKRRKISQAKDDSQNAIDHKIESDTEETQDTSVDHNETGNTGESSVEENEKQQNASESKLELRNNSNTCNIENELEDSRKTTACTELRDKIACNGDASSSQIIHISDENEGKEMCVLRMTRARRSQVEQQQLITVEKALAILSQPTPSLVVDHERLKNLLKTVVKKSQNYNIFQLENLYAVISQCIYRHRKDHDKTSLIQKMEQEVENFSCSR | – | 52 | – | – | – | 43 | – | – | – | 0 | – | 23 | 58 | 0 | – | –
TRAG-3 (protein, UniProt Q9Y5P2 1-127, looked up) Chondrosarcoma-associated …: MWMGLIQLVEGVKRKDQGFLEKEFYHKTNIKMRCEFLACWPAFTVLGEAWRDQVDWSRLLRDAGLVKMSRKPRASSPLSNNHPPTPKRRGSGRHPLNPGPEALSKFPRQPGREKGPIKEVPGTKGSP | 0 | 10 | – | – | 55 | 10 | – | – | – | – | 26 | 54 | 7 | – | 83 | –
MART1 (protein, UniProt Q16655 1-118, looked up) Melanoma antigen recognized …: MPREDAHFIYGYPKKGHGHSYTTAEEAAGIGILTVILGVLLLIGCWYCRRRNGYRALMDKSLHVGTQCALTRRCPQEGFDHRDSKVSLQEKNCEPVVPNAPPAYEKLSAEQSPPPYSP | 0 | – | 0 | – | – | – | – | – | – | 89 | – | – | – | – | – | –
MAGE-B4 (protein, UniProt O15481 1-346, looked up) Melanoma-associated antigen B4: MPRGQKSKLRAREKRQRTRGQTQDLKVGQPTAAEKEESPSSSSSVLRDTASSSLAFGIPQEPQREPPTTSAAAAMSCTGSDKGDESQDEENASSSQASTSTERSLKDSLTRKTKMLVQFLLYKYKMKEPTTKAEMLKIISKKYKEHFPEIFRKVSQRTELVFGLALKEVNPTTHSYILVSMLGPNDGNQSSAWTLPRNGLLMPLLSVIFLNGNCAREEEIWEFLNMLGIYDGKRHLIFGEPRKLITQDLVQEKYLEYQQVPNSDPPRYQFLWGPRAHAETSKMKVLEFLAKVNDTTPNNFPLLYEEALRDEEERAGARPRVAARRGTTAMTSAYSRATSSSSSQPM | 0 | – | – | – | – | – | – | – | 0 | – | – | – | – | – | – | 3
MAGE-B2 (protein, UniProt O15479 1-319, looked up) Melanoma-associated antigen B2: MPRGQKSKLRAREKRRKARDETRGLNVPQVTEAEEEEAPCCSSSVSGGAASSSPAAGIPQEPQRAPTTAAAAAAGVSSTKSKKGAKSHQGEKNASSSQASTSTKSPSEDPLTRKSGSLVQFLLYKYKIKKSVTKGEMLKIVGKRFREHFPEILKKASEGLSVVFGLELNKVNPNGHTYTFIDKVDLTDEESLLSSWDFPRRKLLMPLLGVIFLNGNSATEEEIWEFLNMLGVYDGEEHSVFGEPWKLITKDLVQEKYLEYKQVPSSDPPRFQFLWGPRAYAETSKMKVLEFLAKVNGTTPCAFPTHYEEALKDEEKAGV | 0 | – | – | 0 | – | 0 | 45 | 0 | – | 22 | 61 | 43 | 0 | 0 | – | –
